Laboratory results published in patent publication US6982170.

Key:
[1] = test system: human wild type FGF-1 (fibroblast growth factor-1)
[2] = test system: thrombin resistant mutant FGF-1R136K
[3] = molecular target: human wild type FGF-1 (fibroblast growth factor-1) (human) (UniProt P05230); experiment: cell-based or functional assay

| BAEC growth (cell number after 3 days) with thrombin-pretreated growth factor [3] [U/ml] | Substance | degradation of FGF-1 on Western blot (bands at 17 kD and 14 kD), no heparin [1] | degradation of FGF-1 on Western blot [2] | size of the cleavage band on Western blot [2] |
| --- | --- | --- | --- | --- |
|  | thrombin | wild-type FGF-1 was degraded by even the lowest concentration of thrombin used (0.5 U/ml) | FGF-1R136K, even in the absence of heparin, was relatively resistant to thrombin degradation | the band detected upon treatment of FGF-1R136K mutant is slightly larger than the degradation band from wild type FGF-1 |
| < 1 | thrombin (enzyme) |  |  |  |
